According to US11648295B2, “Methods of treating diseases resulting from a maladapted stress response” (Cortene Inc., priority 2016, dated 2023):
No end group written: not given here.

How the values were obtained:
CRFR2 [1] = biological target: T1, CRFR2 (Homo sapiens, UniProt Q13324); assay: EC50, nmol (% of Emax) | CRFR2
T1 sequence (Q13324 whole entry, looked up): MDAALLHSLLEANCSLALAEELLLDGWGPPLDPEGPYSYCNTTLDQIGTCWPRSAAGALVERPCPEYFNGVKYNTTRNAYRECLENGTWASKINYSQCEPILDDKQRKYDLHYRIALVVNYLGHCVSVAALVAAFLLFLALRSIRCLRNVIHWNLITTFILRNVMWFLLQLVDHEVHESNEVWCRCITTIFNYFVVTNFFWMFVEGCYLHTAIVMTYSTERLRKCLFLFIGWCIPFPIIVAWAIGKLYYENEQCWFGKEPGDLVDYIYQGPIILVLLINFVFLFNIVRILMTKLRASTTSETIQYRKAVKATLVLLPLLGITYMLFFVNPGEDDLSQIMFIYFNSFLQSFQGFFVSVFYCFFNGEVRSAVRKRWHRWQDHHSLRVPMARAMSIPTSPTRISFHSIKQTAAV
Text: (§1) Table printed on a drawing sheet, FIGURE 10
(§2) Title: Pharmacokinetic Parameters
Head of the field: EC50, nmol (% of Emax) | CRFR2
(§3) Footnotes: FIGURE 10: Effect of maximum or steady state plasma concentrations (Cmax or Css) of various CRFR2 agonists (CT38, SCP or Ucn2), dosed by subcutaneous bolus (triangles) or intravenous infusion (circles), on the maximum heart rate (HRmax) in healthy subjects (solid lines) or stable congestive heart failure patients (dashed lines). The table provides comparative pharmacokinetic parameters for the CRFR2 agonists.
(§4) That is, for strongly potent CRFR2 agonists and relative intermediate plasma concentrations, the loss of the ability to induce a heart rate increase via continuous dosing, was driven by the duration of dosing, and appeared to occur with different selective CRFR2 agonists (e.g., Ucn2, stresscopin), irrespective of the condition of the human subject.
(§5) First copying reader's note: Each EC50 cell holds the EC50 in nmol with the % of Emax in brackets after it.
Where the first naming reader finds the target: head: EC50, nmol (% of Emax) | CRFR2

CRFR1 [2] = biological target: CRFR1 (Homo sapiens, UniProt P34998); assay: EC50, nmol (% of Emax) | CRFR1
Text: as §1, §2
Head of the field: EC50, nmol (% of Emax) | CRFR1
as §3, §4, §5
Where the first naming reader finds the target: head: EC50, nmol (% of Emax) | CRFR1

CRFR2 [3] = biological target: T1, CRFR2; assay: in vitro potency / binding potential for CRFR2 (table of FIG. 10); format: biochemical
CRFR1 [4] = biological target: T2, CRFR1 (Homo sapiens, UniProt P34998); assay: in vitro binding potential for CRFR1 (table of FIG. 10); format: biochemical
T2 sequence (P34998 24-415): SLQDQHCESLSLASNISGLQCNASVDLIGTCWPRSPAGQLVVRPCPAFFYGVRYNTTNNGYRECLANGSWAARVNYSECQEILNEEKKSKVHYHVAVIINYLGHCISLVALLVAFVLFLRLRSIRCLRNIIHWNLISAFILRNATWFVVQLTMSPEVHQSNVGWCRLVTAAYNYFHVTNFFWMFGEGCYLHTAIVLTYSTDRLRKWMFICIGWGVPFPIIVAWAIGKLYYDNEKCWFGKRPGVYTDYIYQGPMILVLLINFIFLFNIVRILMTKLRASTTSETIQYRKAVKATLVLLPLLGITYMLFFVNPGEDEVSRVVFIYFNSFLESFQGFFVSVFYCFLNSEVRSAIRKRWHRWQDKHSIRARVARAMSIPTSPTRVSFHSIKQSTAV

[5] = test system: stable congestive heart failure patients; conditions: escalating i.v. infusion over 3 hours; cited from earlier work

## Ucn3: endogenous CRFR2-selective agonist peptide, used as a proxy for SCP (FTLSLDVPTNIMNLLFNIAKAKNLRAQAAANAHLMAQI) [listing 1 of 2 here]
CRFR2 [1]
  EC50, nmol (% of Emax) | CRFR2: > 100 (60) nmol (% of Emax)
CRFR1 [2]
  EC50, nmol (% of Emax) | CRFR1: > 1000 (10) nmol (% of Emax)

## Ucn3: endogenous CRFR2-selective agonist peptide, used as a proxy for SCP (FTLSLDVPTNIMNLLFNIAKAKNLRAQAAANAHLMAQI) [listing 2 of 2 here]
CRFR2 [3]
  in vitro binding potential for CRFR2: strong binding potential for CRFR2 (maximal, at low concentrations)
CRFR1 [4]
  in vitro binding potential for CRFR1: weak binding potential for CRFR1 (minimal, at moderate concentrations)

## stresscopin (FTLSLDVPTNIMNLLFNIAKAKNLRAQAAANAHLMAQI; ends and bridges not checked; UniProt Q969E3 120-157, looked up)
[5]
  pattern of effect on heart rate versus Ucn2: very similar
